# B1: KB_A12_ShK: ShK toxin in VL CDR2 of KB_A12, IgG1 (antibody, V domains shown)
# VH: EVQLVESGGGLVRPGGSLRLSCAASGFTFSSYAMSWVRQAPGKGLEWVSAISGSGGSTYYADSVKGRFTISRDNTKNSLYLQMTSLRADDTAFYYCVKDFGPGYGTGWFDYWGPGTLVTVSS
# VL: QSVLTQPPSVSEAPRQRVTITCSGSSSNIGNNAVNWYQQLPGKAPKLLIYAAGRRSCIDTIPKSRCTAFQCKHSMKYRLSFCRKTCGTCANSGVSDRFSAAKSGTSASLAINGLRSEDEADYYCAAWDDSLNGYVFGTGTKLTVLG
# B2: KB_A07: EETI-II knottin fused into VL CDR2, D1A12 VH; parental KnotBody, isotype control (antibody, V domains shown)
# VH: B1 VH
# VL: DIQMTQSPSSLSASVGDRVTITCRASQSISSYLNWYQQKPGKAPKLLIYAAGVCPRILMRCKQDSDCLAGCVCGPNGFCGSRSGVPSRFSGSGSGTDFTLTISSLQPEDFATYYCQQGASPPYTFGQGTKVEIKRT
# B3: KB_A12: EETI-II knottin fused into VL CDR2, D1A12 VH; parental KnotBody, isotype control (antibody, V domains shown)
# VH: B1 VH
# VL: QSVLTQPPSVSEAPRQRVTITCSGSSSNIGNNAVNWYQQLPGKAPKLLIYAAGRCPRILMRCKQDSDCLAGCVCGPNGFCGANSGVSDRFSAAKSGTSASLAINGLRSEDEADYYCAAWDDSLNGYVFGTGTKLTVLGQP
# Assays:
# huKv1.3 = target: T1, huKv1.3 (Homo sapiens, UniProt P22001); experiment: QPatch automated whole-cell patch-clamp, CHO cells stably expressing huKv1.3 (Example 8); assay type: cell-based
# T1 construct: host or cells: CHO
# Description: (§1) Knottin Kv 1.3 and ASIC1a blockers expressed in the KnotBody format (see examples 6 and 7) were tested for their ability to inhibit the function of the ion channel targets. The effect of these KnotBodies on cells expressing the human Kv 1.3 (huKv1.3) or human ASIC1a channels was assessed using QPatch automated whole-cell patch-clamp electrophysiology (Sophion).
# For the testing of Kv1.3, CHO cells stably expressing huKv1.3 (Charles River Lab) were analysed using the QPatch electrophysiology assay in the presence or absence of the KnotBody fusions or the antibody isotypes (negative) controls. Internal and external physiological solutions were freshly prepared prior to the assay. The extracellular solution contained 145 mM NaCl, 4 mM KCl, 2 mM CaCl2, 1 mM MgCl2, 10 mM HEPES and 10 mM glucose; the pH was adjusted to 7.4 with NaOH; the osmolarity was ~ 305 mOsm/L. The intracellular solution contained: KF (120 mM), KCl (20 mM), HEPES (10 mM) and EGTA (10 mM); the pH was adjusted to 7.2 with KOH; osmolarity was ~ 320 mOsm/L.
# A series of depolarising voltage (channel activating) pulses were used to monitor the channel currents upon adding control (extracellular solution) to define a control baseline of current activity. To these measured control currents ascending concentrations of KnotBodies or parental antibody isotypes (control molecules) were applied to the external bathing solution (2.2 µM - 0.5 nM, diluted in the extracellular solution). KnotBodies KB_A12 and KB_A07 (EETI-II fusions) were used as isotype controls for the testing. From a holding voltage of -80 mV a depolarising, activating voltage pulses of +30 or +80 mV were applied for 300 ms, every 5 or 10 seconds. The elicited, maximum outward current values measured during the activating step for each solution exchange period were averaged (n = 3 - 8 for each concentration applied) and plotted as concentration-response curves. KB_A07_ShK, KB_A12_ShK and KB_A07_Kaliotoxin (KTX) fusion proteins all inhibited the huKv1.3 currents in a concentration dependent manner with IC50S of approximately 20 nM, 40 nM and 900 nM respectively.
# huASIC1a = target: T2, huASIC1a (Homo sapiens, UniProt P78348); experiment: QPatch electrophysiology, HEK293 cells stably expressing huASIC1a; assay type: cell-based; conditions: ASIC1a current at pH 6.0 after 15-20 minutes KnotBody pre-incubation, 2.3-6.6 µM
# T2 construct: host or cells: HEK293
# T2 sequence (P78348 1-528): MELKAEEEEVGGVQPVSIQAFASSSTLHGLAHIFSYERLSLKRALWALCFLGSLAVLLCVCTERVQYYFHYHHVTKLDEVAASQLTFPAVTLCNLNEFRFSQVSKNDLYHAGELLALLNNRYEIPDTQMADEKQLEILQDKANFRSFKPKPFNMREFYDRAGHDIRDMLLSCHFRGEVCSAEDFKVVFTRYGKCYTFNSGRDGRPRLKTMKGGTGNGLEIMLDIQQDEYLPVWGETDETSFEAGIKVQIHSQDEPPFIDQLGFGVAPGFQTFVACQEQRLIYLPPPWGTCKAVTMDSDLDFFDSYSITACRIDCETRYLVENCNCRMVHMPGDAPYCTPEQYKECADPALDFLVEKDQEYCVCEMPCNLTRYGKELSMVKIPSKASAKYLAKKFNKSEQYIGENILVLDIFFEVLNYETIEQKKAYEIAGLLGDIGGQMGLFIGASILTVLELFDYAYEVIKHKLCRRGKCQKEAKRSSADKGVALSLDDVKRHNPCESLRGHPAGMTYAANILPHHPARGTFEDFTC
# Description: as §1
# To functionally assess the ASIC1a KnotBodies, HEK293 cells stably expressing huASIC1a (Sophion) were analysed using a QPatch electrophysiology assay in the presence or absence of the KnotBody fusions (using KB_A12 as a recipient and replacing the original EETI-II donor as shown in Table 8). The “parental” KB_A12 with the EETI-II donor was used as a negative control. Internal and external physiological solutions were freshly prepared prior to the assay. The extracellular solution contained 145 mM NaCl, 4 mM KCl, 2 mM CaCl2, 1 mM MgCl2, 10 mM HEPES and 10 mM glucose; the pH was adjusted to 7.4 with NaOH (for control, resting-state pH) or 6.0 with MES (for acidic, activating-state pH); the osmolarity was ~ 305 mOsm/L. The intracellular solution contained: CsF (140 mM), HEPES (10 mM), NaCl (10 mM) and EGTA/CsOH (1 mM/5 mM); the pH was adjusted to 7.3 with CsOH; osmolarity was ~ 320 mOsm/L.
# Throughout ASIC 1a recordings the recording cell membrane voltage was clamped at -60 mV. ASIC1a baseline control currents were elicited by applying external solution at activating pH 6.0 for 3000 ms. This activating pH application was repeated three further times, giving four baseline control ASIC1a currents. The recording cells were then pre-incubated with KnotBody diluted in external solution at pH 7.4 for 15-20 minutes. Following this KnotBody pre-incubation the same concentration of KnotBody in external solution at activating pH 6.0 was applied to the cell recording.
# At the end of each KnotBody incubation and subsequent ASIC1a current activation, a full blocking concentration (300 nM) of the ASIC1a knottin inhibitor PcTx1 (positive control) was perfused onto the cell recording and a final activating pH 6.0 external solution was applied. The percentage remaining signal between activating pH 6.0 baseline (i.e. pre-KnotBody) and post-KnotBody incubation was determined.
# LOX-1 = LOX-1 (Homo sapiens, UniProt P78380); experiment: Phage TRF binding assay on LOX-1; conditions: phage displayed, FIG. 19
# Description: In order to test the functionality of these adhiron-antibody fusions, monoclonal phage prepared from each clone was assessed for binding to LOX-1 in a TRF binding assay. In this assay, LOX-1 (immobilised directly on Maxisorp™ plates) binding of phage displaying adhiron-antibody fusion was detected using a mouse anti-M13 antibody (GE Healthcare) followed by europium conjugated anti-mouse antibody (Perkin Elmer). Parent KnotBodies KB_A07 and KB_A12 (EETI-II fusions) were included as controls. Proteins cMET-FC, GAS6-CD4, FGFR4-CD4, UPA and B-gal were used to examine non-specific binding.
# [1] = Kv1.3 channels, IgG KnotBody, Table 11A
# T1 sequence (P22001 whole entry): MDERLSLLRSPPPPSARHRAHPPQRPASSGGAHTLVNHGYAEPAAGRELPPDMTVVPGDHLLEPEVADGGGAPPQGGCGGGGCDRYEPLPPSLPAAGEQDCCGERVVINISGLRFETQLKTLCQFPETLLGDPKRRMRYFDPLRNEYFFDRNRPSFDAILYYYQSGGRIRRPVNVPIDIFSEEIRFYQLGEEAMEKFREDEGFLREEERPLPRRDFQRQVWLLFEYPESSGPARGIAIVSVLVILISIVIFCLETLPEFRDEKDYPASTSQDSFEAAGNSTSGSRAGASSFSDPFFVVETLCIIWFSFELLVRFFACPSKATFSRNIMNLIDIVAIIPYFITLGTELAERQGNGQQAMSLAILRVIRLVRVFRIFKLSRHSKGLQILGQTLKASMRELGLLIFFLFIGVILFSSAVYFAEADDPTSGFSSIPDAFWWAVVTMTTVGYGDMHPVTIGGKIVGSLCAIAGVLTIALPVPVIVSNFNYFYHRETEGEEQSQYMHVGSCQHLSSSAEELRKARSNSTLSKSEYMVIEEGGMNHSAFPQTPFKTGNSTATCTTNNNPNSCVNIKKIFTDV
Molecule,IC50 (huKv1.3; [1]),"IC50 (huKv1.3; huKv1.3 currents, text of Example 8, approximately)",% current remaining (huASIC1a),binding to LOX-1 (LOX-1)
B1,20 nM,~40 nM,–,–
B2,> 10000 nM,–,70.9%,no detectable binding to the LOX-1
B3,> 10000 nM,–,67.4%,no detectable binding to the LOX-1
